In this test the target is glutathione S-transferase fusion from pGEX-6P1 possessing a C-terminal optimized tetracysteine motif (GST-TC12). Briefly: SEC; Superdex 75 Increase 10/300, 50 mM Tris pH 7.5, 150 mM NaCl; quenched one-pot ligation mixtures (Ub or SUMO, SrtCrAsH, eSrtA, GST-TC12); peaks collected and analysed by ESI-MS.

Sequence of glutathione S-transferase fusion from pGEX-6P1 possessing a C-terminal optimized tetracysteine motif (GST-TC12) (P08515 2-218): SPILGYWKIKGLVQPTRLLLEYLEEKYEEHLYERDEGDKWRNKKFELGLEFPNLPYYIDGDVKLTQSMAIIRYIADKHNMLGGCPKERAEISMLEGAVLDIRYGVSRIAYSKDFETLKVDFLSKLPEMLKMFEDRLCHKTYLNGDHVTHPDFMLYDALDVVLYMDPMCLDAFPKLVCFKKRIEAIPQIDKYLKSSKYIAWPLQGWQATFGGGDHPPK

On to “glutathione S-transferase fusion from pGEX-6P1 possessing a C-terminal optimized tetracysteine motif (GST-TC12) (natural protein)”, for which the stoichiometry N worked out at 2.

The record behind these values is PMC11561763.
